Experimental data from the supplement of paper PMC10724198.
± gives the standard deviation of the averaged measurements.

Test system: Saccharomyces cerevisiae
Test: protein stability index of tFT-peptide fusion (C-terminal peptide) (PSI (0-1 scale)); higher = more stable (slower turnover)
Settings: temperature: 30 C
Protocol: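 MPS profiling in S. cerevisiae of the yeast C-terminome library: the last 12 aa of each annotated ORF are fused to the C-terminus of a sfGFP-mCherry timer, after a GGGS linker. Cells are FACS-sorted into 8 mCherry/sfGFP bins and deep-sequenced. PSI runs from 0 (unstable) to 1 (stable); wild type and das1Δ backgrounds, two technical replicates each.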

[1] = genetic background: das1 deletion

Sequence	protein stability index [1]	protein stability index (genetic background: wild type)
IKLADAIYKGLE [FOL1 C-terminal 12 aa]	0.702 ± 0.013	0.6648 ± 0.0011
IKNTGDLLKLYK [ALK1 C-terminal 12 aa]	0.685 ± 0.021	0.647 ± 0.0085
ILELVNEDYQSI [MRP17 C-terminal 12 aa]	0.738 ± 0.048	0.71 ± 0.039
ILEYQKRRSFIK [IRC3 C-terminal 12 aa]	0.7238 ± 0.0049	0.652 ± 0.021
ILKPYYIWNNRN [ARR3 C-terminal 12 aa]	0.7161 ± 0.0069	0.276 ± 0.0074
ILRLRLRKATFD [PRM1 C-terminal 12 aa]	0.706 ± 0.023	0.708 ± 0.044
ILRQARCDRPHY [YEL068C C-terminal 12 aa]	0.691 ± 0.02	0.727 ± 0.071
ILVLRHFDEIFI [YOR032W-A C-terminal 12 aa]	0.63 ± 0.0065	0.655 ± 0.044
IMICFLERRKGN [FYV1 C-terminal 12 aa]	0.652 ± 0.018	0.638 ± 0.075
IMTSEIVTNALR [YEL030C-A C-terminal 12 aa]	0.70774 ± 0.00013	0.705 ± 0.022
INDKNTEYTLKE [MRX9 C-terminal 12 aa]	0.703 ± 0.019	0.732 ± 0.017
INEFIEQSCKGE [YMR187C C-terminal 12 aa]	0.687 ± 0.024	0.7 ± 0.044
INQEAYQAFLRR [GUF1 C-terminal 12 aa]	0.7022 ± 0.0031	0.7039 ± 0.0062
IPPLIWLRKKRC [PUL3 C-terminal 12 aa]	0.69553 ± 0.00032	0.664 ± 0.0097
IQEISAAVKKYT [SAM4 C-terminal 12 aa]	0.704 ± 0.014	0.728 ± 0.038
IQTLRIKQDRYK [MAK10 C-terminal 12 aa]	0.711 ± 0.0083	0.665 ± 0.029
ISEIEQLLSKLK [ATP4 C-terminal 12 aa]	0.698 ± 0.014	0.684 ± 0.045

Sequence	protein stability index [1]	protein stability index (genetic background: wild type)
ISNDMQVPPQIS [CKS1 C-terminal 12 aa]	0.722 ± 0.0098	0.688 ± 0.011
ISPSKSITMVAE [YDR526C C-terminal 12 aa]	0.689 ± 0.011	0.6363 ± 0.0024
ITNEVNIYSPFF [YOR105W C-terminal 12 aa]	0.73841 ± 0.00012	0.7762 ± 0.0059
IVFVPSSSYSVN [YJR157W C-terminal 12 aa]	0.711 ± 0.014	0.671 ± 0.021
IVILIFDRLLSN [YGL081W C-terminal 12 aa]	0.394 ± 0.021	0.425 ± 0.03
IVIQVNNPLTRA [DOG1 C-terminal 12 aa]	0.66 ± 0.011	0.7098 ± 0.0059
IVIQVNNPLTRD [DOG2 C-terminal 12 aa]	0.692 ± 0.099	0.643 ± 0.0052
IVQLGMSHGDIS [SMF1 C-terminal 12 aa]	0.711 ± 0.028	0.699 ± 0.023
IYAALPKSKIKL [YMR304C-A C-terminal 12 aa]	0.698 ± 0.012	0.737 ± 0.013
IYEGFLDHANSF [TFB6 C-terminal 12 aa]	0.735 ± 0.011	0.745 ± 0.012
KAEYLKNCPITQ [RPC40 C-terminal 12 aa]	0.712 ± 0.012	0.719 ± 0.028
KAIRRCQAIGLM [RSM18 C-terminal 12 aa]	0.683 ± 0.014	0.672 ± 0.0076
KALKWEEQELNM [CCM1 C-terminal 12 aa]	0.711 ± 0.015	0.729 ± 0.057
KAPKILYKRKGY [HPA2 C-terminal 12 aa]	0.685 ± 0.024	0.675 ± 0.036
KATQAIIGYTFK [VMA13 C-terminal 12 aa]	0.70395 ± 0.00035	0.71 ± 0.023
KCIRGGVFLWII [YGL014C-A C-terminal 12 aa]	0.605 ± 0.019	0.309 ± 0.0041
KDELERVAKSNR [RPS5 C-terminal 12 aa]	0.6889 ± 0.0032	0.694 ± 0.017
